Experiments:
[1] = molecular target: T1, mouse transferrin receptor (mTfR) fused to EGFP, on CHO cells (mouse, UniProt Q62351 1-763); experiment: flow cytometry on CHO-mTfR-EGFP cells, 1 hr at 4 C, Alexa647 anti-mouse; apparent Kd, mean ± SEM of 3 experiments
T1 construct: whole, on cells; also called mouse TfR; CHO-mTfR-EGFP; not shown: EGFP
Description: (§1) FIGS. 13A-13B: Apparent Kd determination of 13C3-HC-VHH fusions on hTfR- and mTfR-expressing CHO cell lines. (A) CHO-hTfR-EGFP and CHO-mTfR-EGFP cells were incubated 1 hr at 4° C. with various concentrations of 13C3 fusions and detected with an Alexa647-conjugated anti-mouse antibody (1/400). Measurements were performed using flow cytometry. The ratio of fluorescence intensity for each point was normalized with the corresponding EGFP signal (receptor expression) and gave rise to the arbitrary unit. Data are presented as mean±SEM of 3 independent experiments. (B) Characteristics of 13C3 fusions: Molecular Weight (Da); Apparent Kd on human TfR (nM); Apparent Kd on mouse TfR (nM). Data are presented as mean±SEM of 3 independent experiments. NB: no binding, LB: low binding.
All experiments were performed in 96 well plates using 2×10⁵ cells/well, at 4° C. with shaking. CHO cell lines stably expressing the hTfR or the mTfR fused to EGFP or CHO WT cells were saturated with PBS/BSA 2% solution during 30 min to avoid non-specific binding, followed by incubation with purified VHHs at concentrations ranging from 50 μM to 5 μM for 1 hr. After one wash in PBS/BSA 2%, cells were incubated for 1 hr with an anti-6His tag antibody (mouse), washed twice with PBS/BSA 2%, and incubated for 45 min with an Alexa647-conjugated anti-mouse secondary antibody. After two last washes in PBS/BSA 2%, cells were fixed by incubation for 15 min with PBS/PFA 2%, washed once with PBS and finally resuspended in PBS and stored at 4° C. Fluorescence levels were assessed using an Attune NxT Flow Cytometer (Thermo Fisher Scientific).

[2] = molecular target: T2, human transferrin receptor (hTfR) fused to EGFP, on CHO cells (human, UniProt P02786 1-760); experiment: flow cytometry on CHO-hTfR-EGFP cells, 1 hr at 4 C, Alexa647 anti-hFc; apparent Kd, mean ± SEM of 3 experiments
T2 construct: whole, on cells; also called human TfR; CHO-hTfR-EGFP; not shown: EGFP from pEGFP-C1 vector, fused to the N-terminal (intracellular) end of hTfR
Description: as §1, with “8A-8B:” for “13A-13B:”, “VHH-Fcs and Fc-VHHs” for “13C3-HC-VHH fusions”, “VHH-Fcs or Fc-VHHs,” for “13C3 fusions and”, “anti-hFc” for “anti-mouse”, “selected VHH-Fcs and Fc-VHHs:” for “13C3 fusions:”, “experiments.” for “experiments. NB: no binding, LB: low binding.”
(§2) The binding properties of VHH-Fc and Fc-VHH fusion proteins with an affinity for the TfR were tested in flow cytometry experiments, and apparent affinity (K_{d app}) were determined. All experiments were performed in 96 well plates using 2-3×10⁵ cells/well, at 4° C. with shaking. […] After washes, cells were incubated for 1 hr with an Alexa647-conjugated anti-hFc antibody (Jackson ImmunoResearch). After 3 last washes and cells resuspension in PBS, fluorescence was immediately measured using a MACSQuant flow cytometer (Miltenyi), and results were analyzed with the MACSQuant software. […] The VHH-Fc and Fc-VHH K_{d app} were calculated using GraphPad Prism software (FIG. 8-B).

[3] = molecular target: T1, mouse transferrin receptor (mTfR) fused …; experiment: flow cytometry on CHO-mTfR-EGFP cells, 1 hr at 4 C, Alexa647 anti-hFc; apparent Kd, mean ± SEM of 3 experiments
Description: as §1, with “8A-8B:” for “13A-13B:”, “VHH-Fcs and Fc-VHHs” for “13C3-HC-VHH fusions”, “VHH-Fcs or Fc-VHHs,” for “13C3 fusions and”, “anti-hFc” for “anti-mouse”, “selected VHH-Fcs and Fc-VHHs:” for “13C3 fusions:”, “experiments.” for “experiments. NB: no binding, LB: low binding.”
as §2

T1 sequence (Q62351 whole entry, the tested form may be a part): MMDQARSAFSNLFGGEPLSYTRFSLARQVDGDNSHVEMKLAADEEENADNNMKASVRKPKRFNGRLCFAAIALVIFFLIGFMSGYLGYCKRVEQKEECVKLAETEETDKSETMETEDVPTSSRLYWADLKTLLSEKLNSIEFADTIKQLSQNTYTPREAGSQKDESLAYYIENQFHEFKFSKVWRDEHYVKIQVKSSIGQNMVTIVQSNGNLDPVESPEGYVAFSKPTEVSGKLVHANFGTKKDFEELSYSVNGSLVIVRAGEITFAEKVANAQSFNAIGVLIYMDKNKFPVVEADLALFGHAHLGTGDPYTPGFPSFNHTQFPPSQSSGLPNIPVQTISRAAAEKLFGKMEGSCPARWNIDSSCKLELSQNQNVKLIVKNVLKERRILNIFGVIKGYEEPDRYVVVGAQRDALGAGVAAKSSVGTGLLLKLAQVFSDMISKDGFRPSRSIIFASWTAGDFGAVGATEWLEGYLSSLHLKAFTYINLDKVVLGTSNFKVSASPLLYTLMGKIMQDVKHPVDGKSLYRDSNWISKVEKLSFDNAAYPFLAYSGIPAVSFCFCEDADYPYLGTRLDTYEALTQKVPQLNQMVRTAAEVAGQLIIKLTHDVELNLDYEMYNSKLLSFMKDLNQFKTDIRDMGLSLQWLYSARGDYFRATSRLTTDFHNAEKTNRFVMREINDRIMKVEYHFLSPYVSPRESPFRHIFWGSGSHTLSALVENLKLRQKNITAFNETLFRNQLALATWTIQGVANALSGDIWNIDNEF
T2 sequence (P02786 whole entry, the tested form may be a part): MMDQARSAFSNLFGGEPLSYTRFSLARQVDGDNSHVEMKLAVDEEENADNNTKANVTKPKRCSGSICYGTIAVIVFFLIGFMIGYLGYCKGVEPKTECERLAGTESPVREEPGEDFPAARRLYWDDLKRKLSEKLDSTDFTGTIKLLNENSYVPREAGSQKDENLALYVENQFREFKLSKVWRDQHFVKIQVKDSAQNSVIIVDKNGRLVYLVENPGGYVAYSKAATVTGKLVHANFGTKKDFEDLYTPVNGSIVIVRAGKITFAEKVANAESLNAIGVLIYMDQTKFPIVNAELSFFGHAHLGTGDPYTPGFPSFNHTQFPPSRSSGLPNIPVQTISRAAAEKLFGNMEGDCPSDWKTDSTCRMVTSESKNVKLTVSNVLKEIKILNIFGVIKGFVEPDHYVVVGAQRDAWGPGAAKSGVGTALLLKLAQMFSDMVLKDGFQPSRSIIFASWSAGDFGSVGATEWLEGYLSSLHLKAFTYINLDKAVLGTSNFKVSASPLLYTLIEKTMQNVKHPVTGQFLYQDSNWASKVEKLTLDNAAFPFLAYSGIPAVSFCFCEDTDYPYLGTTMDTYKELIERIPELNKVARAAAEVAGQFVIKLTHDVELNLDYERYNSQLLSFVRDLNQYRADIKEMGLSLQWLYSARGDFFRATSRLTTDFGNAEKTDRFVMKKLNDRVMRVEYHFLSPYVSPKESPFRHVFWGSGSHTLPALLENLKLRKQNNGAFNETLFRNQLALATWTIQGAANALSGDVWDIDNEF

Binder	Kd [1] [nM]	Kd [2] [nM]	Kd [3] [nM]
13C3-HC-VHH A (antibody, mouse IgG1, mouse IgG1 13C3 (anti beta-amyloid protofibril) with VHH A at the C-ter of each heavy chain) heavy: QVQLQQSGPELVRPGVSVKISCKGSGYTFTDYAMHWVKQSHAKSLEWIGVISTKYGKTNYNQKFKGKATMTVDKSSSTAYMELARLTSEDSAIYYCARGDDGYSWGQGTSVTVSSAKTTPPSVYPLAPGSAAQTNSMVTLGCLVKGYFPEPVTVTWNSGSLSSGVHTFPAVLQSDLYTLSSSVTVPSSTWPSETVTCNVAHPASSTKVDKKIVPRDCGCKPCICTVPEVSSVFIFPPKPKDVLTITLTPKVTCVVVDISKDDPEVQFSWFVDDVEVHTAQTQPREEQFNSTFRSVSELPIMHQDWLNGKEFKCRVNSAAFPAPIEKTISKTKGRPKAPQVYTIPPPKEQMAKDKVSLTCMITDFFPEDITVEWQWNGQPAENYKNTQPIMDTDGSYFVYSKLNVQKSNWEAGNTFTCSVLHEGLHNHHTEKSLSHSPGGGGGMAEVQLVESGGGVVQPGGSLKLSCVASGTDFSINFIRWYRQAPGKQREFVAGFTATGNTNYADSMKGRFTISRDNTKNAVYLQIDSLKPEDTAVYYCYMLDKWGQGTQVTVSSAAA light: DVVMTQTPLSLPVSLGDQASISCRSGQSLVHSNGNTYLHWYLQKPGQSPKLLIYTVSNRFSGVPDRFSGSGSGSDFTLKISRVEAEDLGVYFCSQNTFVPWTFGGGTKLEIKRADAAPTVSIFPPSSEQLTSGGASVVCFLNNFYPKDINVKWKIDGSERQNGVLNSWTDQDSKDSTYSMSSTLTLTKDEYERHNSYTCEATHKTSTSPIVKSFNRNEC	11.3	–	–
13C3-HC-VHH A6 (antibody) heavy: QVQLQQSGPELVRPGVSVKISCKGSGYTFTDYAMHWVKQSHAKSLEWIGVISTKYGKTNYNQKFKGKATMTVDKSSSTAYMELARLTSEDSAIYYCARGDDGYSWGQGTSVTVSSAKTTPPSVYPLAPGSAAQTNSMVTLGCLVKGYFPEPVTVTWNSGSLSSGVHTFPAVLQSDLYTLSSSVTVPSSTWPSETVTCNVAHPASSTKVDKKIVPRDCGCKPCICTVPEVSSVFIFPPKPKDVLTITLTPKVTCVVVDISKDDPEVQFSWFVDDVEVHTAQTQPREEQFNSTFRSVSELPIMHQDWLNGKEFKCRVNSAAFPAPIEKTISKTKGRPKAPQVYTIPPPKEQMAKDKVSLTCMITDFFPEDITVEWQWNGQPAENYKNTQPIMDTDGSYFVYSKLNVQKSNWEAGNTFTCSVLHEGLHNHHTEKSLSHSPGGGGGMAEVQLVESGGGVVQPGGSLKLSCVASGTDFSINFIRWYRQAPGKQREFVAGFTATGNTNYADSMKGRFTISRDNTKNAVYLQIDSLKPEDTAVYYCYALDKWGQGTQVTVSSAAA light: DVVMTQTPLSLPVSLGDQASISCRSGQSLVHSNGNTYLHWYLQKPGQSPKLLIYTVSNRFSGVPDRFSGSGSGSDFTLKISRVEAEDLGVYFCSQNTFVPWTFGGGTKLEIKRADAAPTVSIFPPSSEQLTSGGASVVCFLNNFYPKDINVKWKIDGSERQNGVLNSWTDQDSKDSTYSMSSTLTLTKDEYERHNSYTCEATHKTSTSPIVKSFNRNEC	23	–	–
VHH B-Fc (Fc fusion, not shown: human IgG1 Fc fragment of the pINFUSE-IgG1-Fc2 vector (InvivoGen)) EVQLVESGGGVVQPGGSLRLSCAASGEIFSINFMRWYRQAPGKQREWVAGFTRDGSTNYPDSAKGRFTISRDNAKNTVYLQIDSLKPEDTAVYYCYMLDTWGQGTQVTVSS	–	1.2	0.61

Source: patent publication US20230414780A1 (VECT HORUS, published 2023)
